Drawing on publication PMC9097488, this text covers stoichiometry N for two substances.

Assay [1] deals with Crenotalea thermophila TIR-APAZ after removal of the 6xHis-MBP tag (Crenotalea thermophila). The experiment in a line: SEC-MALS. A general note: In gel filtration, larger molecules generally elute earlier.
For assay [2], the target named is MapSPARTA complex (heterodimer of MapAgo and MapTIR-APAZ) (Maribacter polysiphoniae). The experiment in a line: SEC-MALS.

As a reminder, the stoichiometry N is a count of units in the complex or per binding partner.

In turn, “Crenotalea thermophila short pAgo (natural protein)” came in with a stoichiometry N in assay [1] of 1.
In assay [2], “MapSPARTA complex (heterodimer of MapAgo and MapTIR-APAZ)” displayed a stoichiometry N of 4.
